According to patent US20110009319A1 (RESEARCH DEVELOPMENT FOUNDATION, published 2011):

T1: activin-A (UniProt P08476 311-426, [125I] label in the crosslinking assays (site not stated))
T1 construct: The ~14 kDa monomer implies the processed mature chain; Unlabelled protein was used in the luciferase assays; also called bA-bA
T1 sequence (looked up): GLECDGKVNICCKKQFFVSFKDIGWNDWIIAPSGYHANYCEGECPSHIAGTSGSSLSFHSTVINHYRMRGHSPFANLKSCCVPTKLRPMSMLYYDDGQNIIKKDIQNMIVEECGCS


How the values were obtained:
activin-A [1] = target: T1, activin-A; test: activin crosslinking assays
Experimental: Cells were transfected with […] DNA per well with ratios of 0.5 mg TbRII/0.5 mg ALK5/3 mg Cripto unless otherwise indicated for [¹²⁵I]-TGF-b1 crosslinking or […] ActRII/1 mg Cripto/1 mg vector for [¹²⁵I]activin-A crosslinking. As necessary, empty vector was used to keep the amount of DNA transfected constant at […]. […] Cells were then rinsed in HDB, incubated in HDB containing 0.5 mM disuccinylsuberate (DSS) for 30 min on ice, rinsed in HDB and then solubilized in lysis buffer (TBS containing 1% NP-40, 0.5% deoxycholate and 2 mM EDTA) for 1 h on ice. Solubilized, crosslinked complexes were incubated for approximately 24 h at 4° C. with […] of either anti-FLAG (M2), anti-His or anti-myc antibodies. Immune complexes were precipitated using protein-G agarose and analyzed using SDS-PAGE and autoradiography.

activin-A [2] = target: T1, activin-A; test: not described at this place

binding result (activin-A [1])	binding result (activin-A [2])	Binder
no binding		Cripto DEGF mutant (receptor, C-terminal GPI anchor) FEFGPVAGRDLAIRDNSIWDQKEPAVRDRSFQFVPSVGIQNSKEHCGSILHGTWLPKKCSLCRCWHGQLHCLPQTFLPGCD
	no binding	Cripto EGF1•2mCFC mutant (N69G, T72A, R88G, E91G, H104G, W107G) (receptor, C-terminal GPI anchor) FEFGPVAGRDLAIRDNSIWDQKEPAVRDRSFQFVPSVGIQNSKSLNKTCCLGGGACILGSFCACPPSFYGGNCGHDVRKEHCGSILGGTGLPKKCSLCRCWHGQLHCLPQTFLPGCD
